In PMC5560778:

What was measured:
[1] = biological target: NaV1.5 α subunit, DIII LFS voltage clamp fluorometry construct (M1296C), labelled with MTS-TAMRA (human) (UniProt Q14524)
[2] = biological target: NaV1.5 α subunit, DIV voltage clamp fluorometry construct (S1618C), labelled with MTS-TAMRA (human) (UniProt Q14524)
[3] = biological target: A1330W mutant NaV1.5 channel in the DIII-M1296C VCF construct, labelled with MTS-TAMRA (human) (UniProt Q14524)
[4] = biological target: NaV1.5 α subunit, DIII LFS voltage clamp fluorometry construct (M1296C), labelled with MTS-TAMRA (human) (UniProt Q14524); remark: listed apart in the source

β3-NTM β1-C chimera
depolarizing shift of the DIII F-V curve (voltage clamp fluorometry in oocytes), α with chimera against α alone [1]: 22.9 mV

WT NaV β1 subunit (from UniProt Q07699-1 19-218) (natural protein)
depolarizing shift of the DIV F-V curve (voltage clamp fluorometry in oocytes), α with β1 against α alone [2]: 31.3 mV

B1: WT NaV β3 subunit (natural protein)
chain: FPVCVEVPSETEAVQGNPMKLRCISCMKREEVEATTVVEWFYRPEGGKDFLIYEYRNGHQEVESPFQGRLQWNGSKDLQDVSITVLNVTLNDSGLYTCNVSREFEFEAHRPFVKTTRLIPLRVTEEAGEDFTSVVSEIMMYILLVFLTLWLLIEMIYCYRKVSKAEEAAQENASDYLAIPSENKENSAVPVEE
depolarizing shift of the DIII F-V curve (voltage clamp fluorometry in oocytes), A1330W with β3 against A1330W alone [3]: 22.6 mV
depolarizing shift of the DIII F-V curve (voltage clamp fluorometry in oocytes), α with β3 against α alone [4]: 20.7 mV
